Article PMC6352652 (2018)

Legend:
[1] = biological target: T1, FBG domain of rat tenascin-C (rat); test: SPR; 37°C
T1 chain: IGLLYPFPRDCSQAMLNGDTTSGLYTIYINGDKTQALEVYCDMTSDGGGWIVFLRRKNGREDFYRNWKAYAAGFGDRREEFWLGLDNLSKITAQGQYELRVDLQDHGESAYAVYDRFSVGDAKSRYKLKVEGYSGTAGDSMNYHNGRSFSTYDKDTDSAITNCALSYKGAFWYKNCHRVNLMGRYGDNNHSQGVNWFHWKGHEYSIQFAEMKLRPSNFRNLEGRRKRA

[2] = biological target: T2, fibrinogen-like globe (FBG) domain of human tenascin-C (human, UniProt P24821 1975-2201); test: SPR; 37°C
T2 chain: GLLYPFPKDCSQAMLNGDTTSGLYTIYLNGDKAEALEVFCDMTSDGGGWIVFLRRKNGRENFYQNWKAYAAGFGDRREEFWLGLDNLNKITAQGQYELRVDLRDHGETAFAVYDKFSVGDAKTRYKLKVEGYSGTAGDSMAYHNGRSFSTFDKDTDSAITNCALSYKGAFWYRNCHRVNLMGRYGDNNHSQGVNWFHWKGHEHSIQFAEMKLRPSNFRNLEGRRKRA

B1: monoclonal antibody C3 (antibody, V domains shown)
VH: QVQLVESGGGLVQPGRSLRLSCAASGFTFDDYAMHWVRQAPGKGLEWVSGISGSGGSTYYADSVKGRFTISRDNAKNSLYLQMNSLRAEDTALYYCAKSYQSDEDAFDIWGQGTMVTVSS
VL: DIQMTQSPASLPTPVGDRVTITCRASQYIQGFLNWYQQKPGKAPKLLIYDASNLETGVPSRFSGSGSGTDFTLTISSLQPEDFATYYCQQSYSTPQTFGQGTKVDIK
koff [1]: 0.00473 s⁻¹ | koff [2]: 0.00083 s⁻¹
